In patent publication US10077436B2, “Beta-glucosidase enzymes for increased biomass saccharification” (Edeniq, Inc., priority 2013, dated 2018):

Legend:
Format in all cases: biochemical, Aspergillus niger
[1] = substrate: O=[N+]([O-])c1ccc(O[C@@H]2O[C@H](CO)[C@@H](O)[C@H](O)[C@H]2O)cc1; test: BG kinetics, pNPG hydrolysis assay with glucose as competitive inhibitor, yEdQ885-BG; details: other: pNPG substrate, pH 5.0, 50° C.
Description: (§1) The beta-glucosidase (BG) gene from Aspergillus niger (Accession #CAB75696.1) was integrated into the TR3 yeast background at the T4U3 genomic site.
(§2) High resolution enzyme assays and kinetic testing comparing the beta-glucosidases described herein and commercial enzyme preparations were pursued to more clearly quantify differences in mutant BG enzymes compared to the wild type BG enzyme. Based on data presented herein, BG mutant YEdQ885 was selected for further analysis and compared to the BG activity present in commercial preparations of SP188 (Novozymes) and Accellerase® BG (DuPont) as well as wild type BG.
(§3) The kinetic properties of beta glucosidase are important for cellulosic hydrolysis, since in commercial situations a wide range of substrate concentrations and different product inhibition conditions will be encountered. In this example, a Michaelis-Menten kinetics model was used to describe BG kinetics. To determine these kinetic properties, BG activity assays using standard substrates pNPG and cellobiose were employed. yEdQ745-BG (wild type) and yEdQ885-BG (improved), were compared with two commercial BGs, A-BG (Accellerase®) BG from Dupont) and S-BG (Novozymes SP188 from Sigma).
BG activity assay using pNPG is one of the two commonly used standard assays to measure BG activity, which utilizes hydrolysis of p-nitrophenyl-β-D-glucopyranoside (pNPG) by BG into a yellow colored product, p-nitrophenol (pNP), that has a strong absorbance at 405 nm. One pNPG unit is defined as the amount of enzyme that produces 1 μmol of pNP per min. Briefly, to determine BG activity, 25 μL of diluted enzyme in 200 mM sodium acetate buffer (pH 5.0) was mixed with 25 μL of the same buffer and 25 μL of RO water (or glucose solution for the kinetic study) and the mixture was preincubated at 50° C. for 5 min. The reaction was initiated by adding 25 μL of 10 mM pNPG in 200 mM sodium acetate buffer (pH 5.0) and the mixture was incubated at 50° C. for 10 min. The reaction was then terminated by adding 100 μL of 0.25 M sodium carbonate, and the amount of pNP produced was determined by measuring absorbance at 405 nm using a predetermined calibration curve. […]
To determine the kinetic properties, a competitive inhibition mechanism was hypothesized as proposed in the literature (Chauve et al, 2010; Krogh et al, 2010). […] The turnover number, Kcat, can be calculated by Equation (2), where [Et] is the total amount of enzyme.
Conventionally, linearization methods can be used to determine the kinetic parameters based on Equation (1). […] Thus, Vmax, Km and Ki can be determined simultaneously from this fitting process, and Km/Ki can then be calculated. Kcat can be obtained by Equation (2) and Kcat/Km can be calculated accordingly. […]

[2] = substrate: OC[C@H]1O[C@@H](O[C@H]2[C@H](O)[C@@H](O)C(O)O[C@@H]2CO)[C@H](O)[C@@H](O)[C@@H]1O; test: BG kinetics, cellobiose hydrolysis assay (HPLC) with glucose as competitive inhibitor, yEdQ885-BG; details: other: cellobiose substrate, pH 4.8, 50° C.
Description: as §1, §2, §3
(§4) BG activity assay using cellobiose is the other standard assay to measure BG or cellobiase activity, which utilizes hydrolysis of cellobiose by cellobiase into two molecules of glucose, the last step of enzymatic hydrolysis of cellulose. One cellobiase unit (commonly termed as CBU) is defined as the amount of enzyme that converts […] of cellobiose or produces 2 μmol of glucose per min. Briefly, to determine BG activity, 25 μL of diluted enzyme in 50 mM citrate buffer (pH 4.8) equilibrated to 50° C. was mixed with 25 μL cellobiose (or cellobiose/glucose mixture for the kinetic study) to start the reaction. The mixture was incubated at 50° C. for 10 min, and the reaction was terminated by incubating the mixture at 99° C. for 5 min. Different methods are available to measure the glucose produced in the assays. For the kinetic study, HPLC was used.
To determine kinetic properties using cellobiose substrate, duplicate assays with cellobiose concentrations ranging from 0.47 to 15 mM and glucose concentrations of 0, 0.9, 4.5, 6.75, and 8.1 (for A-BG) or 9 (for all the other three BGs) g/L were performed. As for pNPG substrate, the range of cellobiose substrate concentration was chosen to show detectable activity at the lowest substrate concentration and saturation stage at high substrate concentration. However, in contrast to the pNPG substrate, when there was still some activity left at glucose concentration up to 36 g/L, most of the BG activity was lost at an inhibitor level of 9 g/L when cellobiose substrate was used. […]

[3] = substrate: O=[N+]([O-])c1ccc(O[C@@H]2O[C@H](CO)[C@@H](O)[C@H](O)[C@H]2O)cc1; test: BG kinetics, pNPG hydrolysis assay with glucose as competitive inhibitor, yEdQ745-BG; details: other: pNPG substrate, pH 5.0, 50° C.
Description: (§5) Accordingly, in some embodiments, the unmodified form of the beta-glucosidase is a wild-type or a naturally occurring beta-glucosidase, such as, for example, a fungal beta-glucosidase. The full nucleic acid and amino acid sequence for numerous fungal beta-glucosidases are available. The amino acid sequence of A. niger beta-glucosidase is provided as SEQ ID NO:2. Thus, in some embodiments, the unmodified beta-glucosidase is from an Aspergillus species. In some embodiments, the unmodified beta-glucosidase is from a Trichoderma species.
as §1
(§6) The BG-expressing strains were subsequently used in corn mash and corn stover simultaneous saccharification and fermentation (SSF) studies using flask scale and pilot plant fermentations. A 12-gallon corn stover fermentation was performed at 40° C. in which the beta-glucosidase secreting yeast strain was co-inoculated with three other engineered yeast strains individually expressing endoglucanase II, CBH1, and CBHII. Surviving TR3 Saccharomyces cerevisiae yeast strains individually expressing BG, EGII, CBH1 or CBH2 were recovered by plating onto solid medium. A clonal population of BG-secreting yeast was isolated and the BG gene integration confirmed. This strain is referred to herein as yEdQ745 and comprises the wild-type BG gene. The BG sequence in the Tau3 integration cassette was used for subsequent mutagenesis experiments.
as §3
BG activity assay using pNPG is one of the two commonly used standard assays to measure BG activity, which utilizes hydrolysis of p-nitrophenyl-β-D-glucopyranoside (pNPG) by BG into a yellow colored product, p-nitrophenol (pNP), that has a strong absorbance at 405 nm. One pNPG unit is defined as the amount of enzyme that produces 1 μmol of pNP per min. […] The reaction was then terminated by adding 100 μL of 0.25 M sodium carbonate, and the amount of pNP produced was determined by measuring absorbance at 405 nm using a predetermined calibration curve. […]

[4] = substrate: OC[C@H]1O[C@@H](O[C@H]2[C@H](O)[C@@H](O)C(O)O[C@@H]2CO)[C@H](O)[C@@H](O)[C@@H]1O; test: BG kinetics, cellobiose hydrolysis assay (HPLC) with glucose as competitive inhibitor, yEdQ745-BG; details: other: cellobiose substrate, pH 4.8, 50° C.
Description: as §5, §1, §6, §3
as §4, with “The mixture was incubated at 50° C. for 10 min, and the reaction was terminated by incubating the mixture at 99° C. for 5 min. Different methods are available to measure the glucose produced in the assays. For the kinetic study, HPLC was used.” left out

B1: Aspergillus niger beta-glucosidase (CAB75696.1, SEQ ID NO:2) improved variant yEdQ885-BG (Aspergillus niger; Y363C/Y375F/Y610F) (protein)
chain: DELAYSPPYYPSPWANGQGDWAQAYQRAVDIVSQMTLDEKVNLTTGTGWELELCVGQTGGVPRLGVPGMCLQDSPLGVRDSDYNSAFPAGMNVAATWDKNLAYLRGKAMGQEFSDKGADIQLGPAAGPLGRSPDGGRNWEGFSPDPALSGVLFAETIKGIQDAGVVATAKHYIAYEQEHFRQAPEAQGFGFNISESGSANLDDKTMHELYLWPFADAIRAGAGAVMCSYNQINNSYGCQNSYTLNKLLKAELGFQGFVMSDWAAHHAGVSGALAGLDMSMPGDVDYDSGTSYWGTNLTISVLNGTVPQWRVDDMAVRIMAAYYKVGRDRLWTPPNFSSWTRDECGYKYYYVSEGPFEKVNQYVNVQRNHSELIRRIGADSTVLLKNDGALPLTGKERLVALIGEDAGSNPYGANGCSDRGCDNGTLAMGWGSGTANFPYLVTPEQAISNEVLKHKNGVFTATDNWAIDQIEALAKTASVSLVFVNADSGEGYINVDGNLGDRRNLTLWRNGDNVIKAAASNCNNTIVVIHSVGPVLVNEWYDNPNVTAILWGGLPGQESGNSLADVLYGRVNPGAKSPFTWGKTREAYQDFLVTEPNNGNGAPQEDFVEGVFIDYRGFDKRNETPIYEFGYGLSYTTFNYSNLEVQVLSAPAYEPASGETEAAPTFGEVGNASDYLYPSGLQRITKFIYPWLNGTDLEASSGDASYGQDSSDYLPEGATDGSAQPILPAGGGPGGNPRLYDELIRVSVTIKNTGKVAGDEVPQLYVSLGGPNEPKIVLRQFERITLQPSEETKWSTTLTRRDLANWNVEKQDWEITSYPKMVFVGSSSRKLPLRASLPTVH
notes: strain yEdQ885, BG acid/base mutant #8
Km [1]: 640 ± 30 µM | Vmax [1]: 6.33 µmol/min/mg | kcat [1]: 12.7 s⁻¹ | kcat/Km [1]: 19800 M⁻¹ s⁻¹ | Km [2]: 1450 ± 260 µM | Vmax [2]: 11.6 µmol/min/mg | kcat [2]: 23.1 s⁻¹ | kcat/Km [2]: 16000 M⁻¹ s⁻¹

B2: Aspergillus niger beta-glucosidase, wild type, yEdQ745-BG (CAB75696.1, SEQ ID NO:2) (Aspergillus niger) (protein)
chain: DELAYSPPYYPSPWANGQGDWAQAYQRAVDIVSQMTLDEKVNLTTGTGWELELCVGQTGGVPRLGVPGMCLQDSPLGVRDSDYNSAFPAGMNVAATWDKNLAYLRGKAMGQEFSDKGADIQLGPAAGPLGRSPDGGRNWEGFSPDPALSGVLFAETIKGIQDAGVVATAKHYIAYEQEHFRQAPEAQGFGFNISESGSANLDDKTMHELYLWPFADAIRAGAGAVMCSYNQINNSYGCQNSYTLNKLLKAELGFQGFVMSDWAAHHAGVSGALAGLDMSMPGDVDYDSGTSYWGTNLTISVLNGTVPQWRVDDMAVRIMAAYYKVGRDRLWTPPNFSSWTRDEYGYKYYYVSEGPYEKVNQYVNVQRNHSELIRRIGADSTVLLKNDGALPLTGKERLVALIGEDAGSNPYGANGCSDRGCDNGTLAMGWGSGTANFPYLVTPEQAISNEVLKHKNGVFTATDNWAIDQIEALAKTASVSLVFVNADSGEGYINVDGNLGDRRNLTLWRNGDNVIKAAASNCNNTIVVIHSVGPVLVNEWYDNPNVTAILWGGLPGQESGNSLADVLYGRVNPGAKSPFTWGKTREAYQDYLVTEPNNGNGAPQEDFVEGVFIDYRGFDKRNETPIYEFGYGLSYTTFNYSNLEVQVLSAPAYEPASGETEAAPTFGEVGNASDYLYPSGLQRITKFIYPWLNGTDLEASSGDASYGQDSSDYLPEGATDGSAQPILPAGGGPGGNPRLYDELIRVSVTIKNTGKVAGDEVPQLYVSLGGPNEPKIVLRQFERITLQPSEETKWSTTLTRRDLANWNVEKQDWEITSYPKMVFVGSSSRKLPLRASLPTVH
notes: strain yEdQ745
Km [3]: 640 ± 60 µM | Vmax [3]: 4.17 µmol/min/mg | kcat [3]: 8.34 s⁻¹ | kcat/Km [3]: 13000 M⁻¹ s⁻¹ | Km [4]: 1450 ± 290 µM | Vmax [4]: 4.36 µmol/min/mg | kcat [4]: 8.72 s⁻¹ | kcat/Km [4]: 6010 M⁻¹ s⁻¹
